Reference: patent US11471462B2, “Compositions and methods for detecting and treating diabetes” (THE BROAD INSTITUTE, INC., priority 2016, dated 2022)

B1: FAF2 (protein)
chain: AAPEERDLTQEQTEKLLQFQDLTGIESMDQCRHTLEQHNWNIEAAVQDRLNEQEGVPSVFNPPPSRPLQVNTADHRIYSYVVSRPQPRGLLGWGYYLIMLPFRFTYYTILDIFRFALRFIRPDPRSRVTDPVGDIVSFMHSFEEKYGRAHPVFYQGTYSQALNDAKRELRFLLVYLHGDDHQDSDEFCRNTLCAPEVISLINTRMLFWACSTNKPEGYRVSQALRENTYPFLAMIMLKDRRMTVVGRLEGLIQPDDLINQLTFIMDANQTYLVSERLEREERNQTQVLRQQQDEAYLASLRADQEKERKKREERERKRRKEEEVQQQKLAEERRRQNLQEEKERKLECLPPEPSPDDPESVKIIFKLPNDSRVERRFHFSQSLTVIHDFLFSLKESPEKFQIEANFPRRVLPCIPSEEWPNPPTLQEAGLSHTEVLFVQDLTDE
B2: UBAC2 (protein)
chain: HCQKLFVYDLHAVKNDFQIWRLICGRIICLDLKDTFCSSLLIYNFRIFERRYGSRKFASFLLGSWVLSALFDFLLIEAMQYFFGITAASNLPSGFLAPVFALFVPFYCSIPRVQVAQILGPLSITNKTLIYILGLQLFTSGSYIWIVAISGLMSGLCYDSKMFQVHQVLCIPSWMAKFFSWTLEPIFSSSEPTSEARIGMGATLDIQRQQRMELLDRQLMFSQFAQGRRQRQQQGGMINWNRLFPPLRQRQNVNYQGGRQSEPAAPPLEVSEEQVARLMEMGFSRGDALEALRASNNDLNVATNFLLQH
B3: PPP6R3 (protein)
chain: MFWKFDLHSSSHIDTLLEREDVTLKELMDEEDVLQECKAQNRKLIEFLLKAECLEDLVSFIIEEPPQDMDEKIRYKYPNISCELLTSDVSQMNDRLGEDESLLMKLYSFLLNDSPLNPLLASFFSKVLSILISRKPEQIVDFLKKKHDFVDLIIKHIGTSAIMDLLLRLLTCIEPPQPRQDVLNWLNEEKIIQRLVEIVHPSQEEDRHSNASQSLCEIVRLSRDQMLQIQNSTEPDPLLATLEKQEIIEQLLSNIFHKEKNESAIVSAIQILLTLLETRRPTFEGHIEICPPGMSHSACSVNKSVLEAIRGRLGSFHELLLEPPKKSVMKTTWGVLDPPVGNTRLNVIRLISSLLQTNTSSINGDLMELNSIGVILNMFFKYTWNNFLHTQVEICIALILASPFENTENATITDQDSTGDNLLLKHLFQKCQLIERILEAWEMNEKKQAEGGRRHGYMGHLTRIANCIVHSTDKGPNSALVQQLIKDLPDEVRERWETFCTSSLGETNKRNTVDLVTTCHIHSSSDDEIDFKETGFSQDSSLQQAFSDYQMQQMTSNFIDQFGFNDEKFADQDDIGNVSFDRVSDINFTLNTNESGNIALFEACCKERIQQFDDGGSDEEDIWEEKHIAFTPESQRRSSSGSTDSEESTDSEEEDGAKQDLFEPSSANTEDKMEVDLSEPPNWSANFDVPMETTHGAPLDSVGSDVWSTEEPMPTKETGWASFSEFTSSLSTKDSLRSNSPVEMETSTEPMDPLTPSAAALAVQPEAAGSVAMEASSDGEEDAESTDKVTETVMNGGMKETLSLTVDAKTETAVFKRVLKSYREEGKLSTSQDAACKDAEECPETAEAKCAAPRPPSSSPEQRTGQPSAPGDTSVNGPV
B4: AGPAT6 (protein)
chain: VSFGIRKLYMKSLLKIFAWATLRMERGAKEKNHQLYKPYTNGIIAKDPTSLEEEIKEIRRSGSSKALDNTPEFELSDIFYFCRKGMETIMDDEVTKRFSAEELESWNLLSRTNYNFQYISLRLTVLWGLGVLIRYCFLLPLRIALAFTGISLLVVGTTVVGYLPNGRFKEFMSKHVHLMCYRICVRALTAIITYHDRENRPRNGGICVANHTSPIDVIILASDGYYAMVGQVHGGLMGVIQRAMVKACPHVWFERSEVKDRHLVAKRLTEHVQDKSKLPILIFPEGTCINNTSVMMFKKGSFEIGATVYPVAIKYDPQFGDAFWNSSKYGMVTYLLRMMTSWAIVCSVWYLPPMTREADEDAVQFANRVKSAIARQGGLVDLLWDGGLKREKVKDTFKEEQQKLYSKMIVGNHKDRSRS
B5: PSMD12 (protein)
chain: ADGGSERADGRIVKMEVDYSATVDQRLPECAKLAKEGRLQEVIETLLSLEKQTRTASDMVSTSRILVAVVKMCYEAKEWDLLNENIMLLSKRRSQLKQAVAKMVQQCCTYVEEITDLPIKLRLIDTLRMVTEGKIYVEIERARLTKTLATIKEQNGDVKEAASILQELQVETYGSMEKKERVEFILEQMRLCLAVKDYIRTQIISKKINTKFFQEENTEKLKLKYYNLMIQLDQHEGSYLSICKHYRAIYDTPCIQAESEKWQQALKSVVLYVILAPFDNEQSDLVHRISGDKKLEEIPKYKDLLKLFTTMELMRWSTLVEDYGMELRKGSLESPATDVFGSTEEGEKRWKDLKNRVVEHNIRIMAKYYTRITMKRMAQLLDLSVDESEAFLSNLVVNKTIFAKVDRLAGIINFQRPKDPNNLLNDWSQKLNSLMSLVNKTTHLIAKEEMIHNLQ
B6: SLC25A22 (protein)
chain: MADKQISLPAKLINGGIAGLIGVTCVFPIDLAKTRLQNQQNGQRVYTSMSDCLIKTVRSEGYFGMYRGAAVNLTLVTPEKAIKLAANDFFRHQLSKDGQKLTLLKEMLAGCGAGTCQVIVTTPMEMLKIQLQDAGRIAAQRKILAAQGQLSAQGGAQPSVEAPAAPRPTATQLTRDLLRSRGIAGLYKGLGATLLRDVPFSVVYFPLFANLNQLGRPASEEKSPFYVSFLAGCVAGSAAAVAVNPCDVVKTRLQSLQRGVNEDTYSGILDCARKILRHEGPSAFLKGAYCRALVIAPLFGIAQVVYFLGIAESLLGLLQDPQA
B7: LPCAT1 (protein)
chain: MRLRGCGPRAAPASSAGASDARLLAPPGRNPFVHELRLSALQKAQVALMTLTLFPVRLLVAAAMMLLAWPLALVASLGSAEKEPEQPPALWRKVVDFLLKAIMRTMWFAGGFHRVAVKGRQALPTEAAILTLAPHSSYFDAIPVTMTMSSIVMKAESRDIPIWGTLIQYIRPVFVSRSDQDSRRKTVEEIKRRAQSNGKWPQIMIFPEGTCTNRTCLITFKPGAFIPGAPVQPVVLRYPNKLDTITWTWQGPGALEILWLTLCQFHNQVEIEFLPVYSPSEEEKRNPALYASNVRRVMAEALGVSVTDYTFEDCQLALAEGQLRLPADTCLLEFARLVRGLGLKPEKLEKDLDRYSERARMKGGEKIGIAEFAASLEVPVSDLLEDMFSLFDESGSGEVDLRECVVALSVVCRPARTLDTIQLAFKMYGAQEDGSVGEGDLSCILKTALGVAELTVTDLFRAIDQEEKGKITFADFHRFAEMYPAFAEEYLYPDQTHFESCAETSPAPIPNGFCADFSPENSDAGRKPVRKKLD
B8: TIMM23B (protein)
chain: MEGGGGSGDKTTGVLAGFFGAGEAGYSHADLAGVPLTGMNPLCPYLNVDPRYLVQDTDEFILPTGANKTWGRFELAFFTIGGCCMTGAAFGAMNGLRLGLKETQNMAWSKPGNVQILNMVTRQGALWANTLGSLALLYSAFGVIIEKTRGAEDDLNTVAAGTMTGMLYKCTVSEMALDSPFCVLLSGS

Tested on: SLC16A11
Assay: SLC16A11 protein-protein interaction study (immunoprecipitation, quantitative mass spectrometry)
Design: species or system human
Details: putative SLC16A11^REF interaction partners; immunoprecipitation from HEK293T cells vs empty vector control; Blandt-Altman
Text: Alternatively, these variants may result in reduced transport because they disrupt protein-protein interactions responsible for correct SLC16A11 function. To explore this possibility, SLC16A11 was immunoprecipitated from HEK293T cells expressing either REF or T2D risk SLC16A11-V5 or empty vector control and quantitative mass spectrometry was used to define the SLC16A11 interactome.
Another mechanism through which the variants could affect activity is through disruption of protein-protein interactions. To explore this possibility, quantitative mass spectrometry-based protein-protein interaction studies were performed to define the SLC16A11 interactome and evaluate if the T2D risk coding variants alter any interactions.
Beads were then washed once with lysis buffer and three times with wash buffer. After the last wash, residual wash buffer was removed, 10 μL fresh wash buffer was added, and beads were stored at −80° C. until analysis by the Proteomics Platform at the Broad Institute, as detailed in the “Proteomics Methods for SLC16A11 Protein Interaction Studies” below.
The beads from immunopurification were washed once with IP lysis buffer, then three times with PBS, the three different lysates of each replicate were resuspended in 90 uL digestion buffer (2M Urea, 50 mM Tris HCl), 2 ug of sequencing grade trypsin added, 1 hour shaking at 700 rpm. The supernatant was removed and placed in a fresh tube. The beads were then washed twice with 50 uL digestion buffer and combined with the supernatant. The combined supernatants were reduced (2 uL 500 mM DTT, 30 minutes, RT), alkylated (4 uL 500 mM IAA, 45 minutes, dark) and a longer overnight digestion performed: 2 ug (4 uL) trypsin, shake o/n, The samples were then quenched with 20 uL 10% FA and desalted on 10 mg SepPak columns.
Desalted peptides were labelled with iTRAQ reagents according to the manufacturer's instructions (AB Sciex, Foster City, Calif.). Peptides were dissolved in 30 μl of 0.5 M TEAB pH 8.5 solution and labeling reagent was added in 70 ul of ethanol. After 1 h incubation the reaction was stopped with 50 mM Tris/HCl pH 7.5. Differentially labelled peptides were mixed and subsequently desalted on 10 mg SepPak columns.
Reconstituted peptides were separated on an online nanoflow EASY-nLC 1000 UHPLC system (Thermo Fisher Scientific) and analyzed on a benchtop Orbitrap Q Exactive Plus mass spectrometer (Thermo Fisher Scientific). The peptide samples were injected onto a capillary column (Picofrit with 10 μm tip opening/75 μm diameter, New Objective, PF360-75-10-N-5) packed in-house with 20 cm C18 silica material (1.9 μm ReproSil-Pur C18-AQ medium, Dr. Maisch GmbH, r119.aq). The UHPLC setup was connected with a custom-fit microadapting tee (360 μm, IDEX Health & Science, UH-753), and capillary columns were heated to 50° C. in column heater sleeves (Phoenix-ST) to reduce backpressure during UHPLC separation. Injected peptides were separated at a flow rate of 200 nL/min with a linear 80 min gradient from 100% solvent A (3% acetonitrile, 0.1% formic acid) to 30% solvent B (90% acetonitrile, 0.1% formic acid), followed by a linear 6 min gradient from 30% solvent B to 90% solvent B. Each sample was run for 120 min, including sample loading and column equilibration times. The Q Exactive instrument was operated in the data-dependent mode acquiring HCD MS/MS scans (R=17,500) after each MS1 scan (R=70,000) on the 12 top most abundant ions using an MS1 ion target of 3×10^6 ions and an MS2 target of 5×10^4 ions. The maximum ion time utilized for the MS/MS scans was 120 ms; the HCD-normalized collision energy was set to 27; the dynamic exclusion time was set to 20 s, and the peptide match and isotope exclusion functions were enabled.
All mass spectra were processed using the Spectrum Mill software package v6.0 pre-release (Agilent Technologies) which includes modules developed by us for iTRAQ-based quantification. […]

B1 and B2 are within 0.2 log units of each other in “BA log fold change” value: 1.23 for the first, 1.21 for the second.

B3 and B4 are within 0.2 log units of each other in “BA log fold change” value: 1.18 for the first, 1.16 for the second.

B5 and B6 are within 0.2 log units of each other in “BA log fold change” value: 1.18 for the first, 1.20 for the second.

B7 and B8 are within 0.2 log units of each other in “BA log fold change” value: 1.16 for the first, 1.22 for the second.
